{"source": "patent US10801046B2", "about": "“Methods and materials for biosynthesizing multifunctional, multivariate molecules via carbon chain modification” (INVISTA NORTH AMERICA S.A.R.L., priority 2016, dated 2020)", "data": [{"experiment": "In vivo aminotransferase activity screening, 7-aminoheptanoate by LC-MS", "format": "cell-based, Escherichia coli", "conditions": "in vivo conversion of 7-oxoheptanoate to 7-aminoheptanoate, 120 aminotransferases screened", "procedure": "A 165-member aminotransferase library from Twist on IPTG-inducible T7- pUC expression vectors was co-transformed into T7 Express lysY/Iq with a constitutive expression pJ23150-derived plasmid bearing the phosphopantetheinyl transferase sfp from Bacillus subtilis, CAR_Srot from Invista and BioC from Serratia marcescens (UniprotKB Accession No. P36571 (SEQ ID NO: 165)). The resulting strains were incubated in 0.5 ml of rich media (terrific broth or LB containing 8% glycerol) supplemented with 0.4 mM IPTG and received 1 g/L monomethyl heptanedioate, 1 g/L heptanedioate, or no organic acid addition, depending on the experiment. Following incubation overnight at 37° C. in a shaking incubator, cells were pelleted and the supernatants were analyzed using LC-MS for 7-aminoheptanoate or monomethyl 7-aminoheptanoate. A Vibrio fluvialis aminotransferase (UniProtKB Accession No. F2XBU9 (SEQ ID NO: 128)) was used as a positive control.", "values": [{"molecule": "SEQ ID NO: 138: Thalassospira profundimaris WP0211 aminotransferase (protein, Thalassospira profundimaris WP0211, Thalassospira profundimaris WP0211 aminotransferase) MNHRPNSLHMSDIAHSMHPYTNMRLHEEKGPMIMAEGNGARVTDSEGKEYIEGLAGLWSVAVGFSETRLADAAYAQLKRLPYYHSFAHKAHEPSIRLAEKLVEMTPEGLNRVFFTNSGSEANDTVVKMAWFLNNGLGRPEKKKFLSRTKAYHGITIASGSLTGLAGNQKDFDLPAIPVTHLSCPHFWRYGEEGETETEFTARLLKELEDTIIAEGPETIAAFIGEPVMGAGGVMTPPEGYWPGVVEICHKYDILVVSDEVINGFGRTGARFGCEKYGFTPDILVTSKQLTSSYMPLAAIVVNDKVYNAIADNTAKLGNFGHGFTGTGHPVACAVGLENLNIIEERDLMGNAKRLEPMFQDGLRAFADHPLIGEIRGVGLIAGLEMADKKTKQPFGKPGTVAAKVVALAAEEGLICRNVYDTVALCPPLIVTEDDVREIHARLGRALDRALDWAKSEGML", "7-aminoheptanoate yield compared to the positive control (F2XBU9)": "higher 7-aminoheptanoate yields"}, {"molecule": "SEQ ID NO: 168: Rhodospirillum centenum aminotransferase (protein, Rhodospirillum centenum (strain ATCC 51521 / SW), Rhodospirillum centenum aminotransferase) MPSTAPHLGNSIASRDIASLLHPYTNLKAHESVGPMVITGGRGVTVVDDAGREYIEGVAGLWCTSLGFDEPRLVEAAVRQLRTLPFYHAFAHKSHEPGIELAEKLVALAPVPMSKAFFACSGSEANDTAVKLVWYYNNALGRPQKKKIIGRIKAYHGVTVASASLTGLPNNHRDFDLPIDRILHTDCPHWYRFHEEGEDEEAFASRLAASLEALIQREGPETVAAFIAEPVMGAGGVIVPPRTYFEKIQAVLRKHDVLLIADEVICGFGRTGAMFGSETFGLKPDIMTMAKALTSAYMPLSAVLVSEPIYRACVAESEKIGVFGHGYTYSGHPVSCAVALETLKIYEERDIVAHTRAVGARLQEGLARYRSHPLVGEVRGVGLIAGVELVADKATRQPFDPKLGVAARLAGFAQGHGAILRPIGDTLGFSPPLIITPEEVDELVARFGRALDDTTAWLEHEHRFRPA", "7-aminoheptanoate yield compared to the positive control (F2XBU9)": "higher 7-aminoheptanoate yields"}, {"molecule": "SEQ ID NO: 169: Marine sediment metagenome aminotransferase (protein, Description of Unknown: Marine sediment metagenome, Marine sediment metagenome aminotransferase) MTVQPNSIEARDIAFHLHSYTNARKHETNGPVVIDKGEGVFVTDTDGNRYIEAMAGLWSVAVGFGEKRLVDAAAKQMGKLPYYHTFTHKSHSPAIELAEKLVAMAPVPMSKAYFTNSGSEANDTMMKLVRYRSNALGQPQKKKFISRMRGYHGVTLASASLTGLVNNHRDFDLPIEGVLHTTCPHYWREGRDGESEEDFATRCAEDLEAMIQAEGPETIAAFIGEPVMGAGGVVVPPATYWEKIQAVLKRHDILLVADEVICGFGRTGEMFGSQTYGIEPDIMTLSKALSSSYLPISALLINEKVYGPIADRSAEIGTLGTGYTASGHPVAAAVALENLKIIEERDLVGNAREMGTLMQCRLRELENHPLVGEVRGVGLIAAIELVTDKKAKVAMQPPGAMAAQAFAILQKNGVISRAIGDALAFCPPLIIEAGHIDTIVETTRRSLDELQASL", "7-aminoheptanoate yield compared to the positive control (F2XBU9)": "higher 7-aminoheptanoate yields"}, {"molecule": "SEQ ID NO: 170: Acidimicrobium ferrooxidans aminotransferase (protein, Acidimicrobium ferrooxidans; Acidimicrobium ferrooxidans (strain DSM 10331 / JCM 15462 / NBRC 103882 / ICP), Acidimicrobium ferrooxidans aminotransferase) MGRFWHPFGQLYESDTNPVVFVRGEGIWVYDDTGRRYLDATAALWYANVGHGRAEIADAIAAQARELAGYSTFGTFSNRPAEELAEFLSARSPMPESEVFFVSGGGDAVETAVKLARRYFSLVGQPERTVLISRTNGYHGTWGFGTSLGGIPANRTGFGELIPTTVQVPWDDVEAVEAAIVANGPERVAAVIAEPVIGAGGVYPPPPGYFEALGATCRRHGVLLIVDSVICGFGRLGTWFGIERLGVEPDLITFAKGVTSGYLPLGGVMVSGRVAAPFKQPGAPVFRHGPTYGGHPTCTAAGIANCRILEDEQILARGAVLEGELLARLRPLASSALVAEVRGGLGLLGAVELRSDLLAEHPDALARLARLALERGIIVRVLATSIALSPPLIIEPAEIGVIVEGLADALDALAAEL", "7-aminoheptanoate yield compared to the positive control (F2XBU9)": "higher 7-aminoheptanoate yields"}]}]}
